From US5273966

Key:
[1] = target: high molecular weight binding protein (150K) in normal rat serum (rat); test: radiolabelled IGF-1 incubated with serum; area under the curves of the high and low molecular weight peaks
[2] = target: high molecular weight binding protein (150K) in normal human serum (human); test: as above

Which results are given for O-glycosylated IGF-1 (ligand)?
percent bound to the large molecular weight form compared to the authentic IGF-1 [1]: 50 to 60%; percent bound to the large molecular weight form compared to the authentic IGF-1 [2]: 50 to 60%
